From the supplement of paper PMC5998384

What was measured:
HeLa Kyoto [1] = assay: solubility in G1/S (NP-40 vs SDS abundance) (log2 ratio); higher = more soluble; conditions: cell cycle stage: G1/S
HeLa Kyoto [2] = assay: melting temperature (median over replicates), in situ; higher = more thermally stable
HeLa Kyoto [3] = assay: solubility change mitosis vs G1/S (difference of NP-40 vs SDS log2 ratios) (log2 ratio difference); higher = more soluble in mitosis
HeLa Kyoto [4] = assay: thermal stability score vs G1/S (z-score of summed log2 fold changes over temperatures); higher = more thermally stable than in G1/S
[5] = cell cycle stage: early G1 (4.5 h after nocodazole release)
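Wherever melting temperature (median over replicates), in situ is given: HeLa Kyoto cells synchronized by double thymidine or nocodazole block, proteins quantified by TMT10plex mass spectrometry, three independent biological replicates.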
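Wherever solubility change mitosis vs G1/S (difference of NP-40 vs SDS log2 ratios) is given: synchronized HeLa Kyoto cells (double thymidine block for G1/S, nocodazole release for mitosis), protein amounts in NP-40 versus SDS lysates quantified by mass spectrometry, three biological replicates.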
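Wherever solubility in G1/S (NP-40 vs SDS abundance) is given: HeLa Kyoto cells arrested at G1/S by double thymidine block, proteins quantified by TMT10plex mass spectrometry in mild NP-40 versus SDS extracts, three biological replicates.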
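Wherever thermal stability score vs G1/S (z-score of summed log2 fold changes over temperatures) is given: synchronized HeLa Kyoto cells, proteins quantified by TMT10plex mass spectrometry, three biological replicates, mitosis taken 0.5 h after nocodazole release, G1/S directly after double thymidine block.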

Sequence	solubility in G1/S (log2) (HeLa Kyoto [1])	melting temperature (HeLa Kyoto [2]; cell cycle stage: G1/S) [°C]	melting temperature (HeLa Kyoto [2]; cell cycle stage: mitosis) [°C]	solubility change mitosis (log2) (HeLa Kyoto [3])	thermal stability score (HeLa Kyoto [4]; [5])	thermal stability score (HeLa Kyoto [4]; cell cycle stage: mitosis)
MSDFDSNPFADPDLNNPFKDPSVTQVTRNVPPGLDEYNPFSDSRTPPPGGVKMPNVPNTQPAIMKPTEEHPAYTQIAKEHALAQAELLKRQEELERKAAELDRREREMQNLSQHGRKNNWPPLPSNFPVGPCFYQDFSVDIPVEFQKTVKLMYYLWMFHAVTLFLNIFGCLAWFCVDSARAVDFGLSILWFLLFTPCSFVCWYRPLYGAFRSDSSFRFFVFFFVYICQFAVHVLQAAGFHNWGNCGWISSLTGLNQNIPVGIMMIIIAALFTASAVISLVMFKKVHGLYRTTGASFEKAQQEFATGVMSNKTVQTAAANAASTAASSAAQNAFKGNQI [SCAMP1]	0.0609	55.8	56	-0.114	-0.608	-0.121
MSDGFDRAPGAGRGRSRGLGRGGGGPEGGGFPNGAGPAERARHQPPQPKAPGFLQPPPLRQPRTTPPPGAQCEVPASPQRPSRPGALPEQTRPLRAPPSSQDKIPQQNSESAMAKPQVVVAPVLMSKLSVNAPEFYPSGYSSSYTESYEDGCEDYPTLSEYVQDFLNHLTEQPGSFETEIEQFAETLNGCVTTDDALQELVELIYQQATSIPNFSYMGARLCNYLSHHLTISPQSGNFRQLLLQRCRTEYEVKDQAAKGDEVTRKRFHAFVLFLGELYLNLEIKGTNGQVTRADILQVGLRELLNALFSNPMDDNLICAVKLLKLTGSVLEDAWKEKGKMDMEEIIQRIENVVLDANCSRDVKQMLLKLVELRSSNWGRVHATSTYREATPENDPNYFMNEPTFYTSDGVPFTAADPDYQEKYQELLEREDFFPDYEENGTDLSGAGDPYLDDIDDEMDPEIEEAYEKFCLESERKRKQ [PAIP1]	0.466	52.9	52.8	0.154	1.49	1.64
MSDKDDIETPLLTEAAPILEDGNCEPAKNSESVDQGAKPESKSEPVVSTRKRPETKPSSDLETSKVLPIQDNVSKDVPQTRWGYWGSWGKSILSSASATVATVGQGISNVIEKAETSLGIPGPSEISTEVKYVAGETNAKENENSSPVAGAFGVFSTISTAVQSTGKSVISGGLDALEFIGKKTMDVIAEGDPGFKRTKGLMNRNATLSQVLREAKEKEEIRTSNEVTVETDKKTHYGLLFDEFQGLSHLEALEMLSQESEIKVKSILNSLSGEELETLKVELEQLKETFSLAEFCEEEEEEKKGDEDFTKDITELFSQLHVSSKPEKLARARNTAHEWIRKSLTKPLAENEEGEKQSEAENTEQVNKNSIEDIHAFAIRSLAELTACSIELFHKTAALVLHGRKQEVTAIERSQTLSQMTIVLCKELSSLSKEFTTCLTTAGVKEMADVLNPLITAVFLEASNSASYIQDAFQLLLPVLEISLIENKIESHRHELQGQKPLLEH [FAM114A2]	0.326	52.3	52	-0.0154	0.464	0.0988
MSDLQAAEGPGSWSPTARPGSAGGVGDCQGVEGSQAAASENEDLENKDTSLLASATDPEPCSSPHRPQMVSPVSKDATEDLRKATGPLEAQALVKQDLLPADQAQVLNEMAKYQVPQRSGDIVMIQSEHTGAIDVLSADLESADLLGDHRKVSPPLMAPPCIWTFAKVKEFKSKLGKEKNSRLVVKRGEVVTIRVPTHPEGKRVCWEFATDDYDIGFGVYFDWTPVTSTDITVQVSDSSDDEDEEEEEEEEIEEPVPAGDVERGSRSSLRGRYGEVMPVYRRDSHRDVQAGSHDYPGEGIYLLKFDNSYSLLRNKTLYFHIYYTS [TMED8]	0.328	50.4	50.3	-0.104	-0.422	-0.616
MSDTAVADTRRLNSKPQDLTDAYGPPSNFLEIDIFNPQTVGVGRARFTTYEVRMRTNLPIFKLKESCVRRRYSDFEWLKNELERDSKIVVPPLPGKALKRQLPFRGDEGIFEESFIEERRQGLEQFINKIAGHPLAQNERCLHMFLQEEAIDRNYVPGKVRQ [SNX12]	0.348	49.2	50.7	0.12	-0.501	-1.12
MSDTLTADVIGRRVEVNGEHATVRFAGVVPPVAGPWLGVEWDNPERGKHDGSHEGTVYFKCRHPTGGSFIRPNKVNFGTDFLTAIKNRYVLEDGPEEDRKEQIVTIGNKPVETIGFDSIMKQQSQLSKLQEVSLRNCAVSCAGEKGGVAEACPNIRKVDLSKNLLSSWDEVIHIADQLRHLEVLNVSENKLKFPSGSVLTGTLSVLKVLVLNQTGITWAEVLRCVAGCPGLEELYLESNNIFISERPTDVLQTVKLLDLSSNQLIDENQLYLIAHLPRLEQLILSDTGISSLHFPDAGIGCKTSMFPSLKYLVVNDNQISQWSFFNELEKLPSLRALSCLRNPLTKEDKEAETARLLIIASIGQLKTLNKCEILPEERRRAELDYRKAFGNEWKQAGGHKDPEKNRLSEEFLTAHPRYQFLCLKYGAPEDWELKTQQPLMLKNQLLTLKIKYPHQLDQKVLEKQLPGSMTIQKVKGLLSRLLKVPVSDLLLSYESPKKPGREIELENDLKSLQFYSVENGDCLLVRW [TBCE]	0.308	47.9	48.4	-0.101	-0.0546	1.48
